Data published in article PMC11236199, “Variation in structural motifs within SARS-related coronavirus spike proteins” (PLOS Pathogens, 2024).

Target: the molecule itself
Test: cryo-EM structure

B1: Bat SARS-like coronavirus WIV1 spike protein ectodomain (domain or fragment)
chain: not shown
notes: also called bCoV-WIV1; bat SL-CoV WIV1
In the case of B1, the “stoichiometry N” value is reported as 3.
